Consider 14 molecules from patent US20240182556A1 (OPSIDIO, published 2024).

B1: H74P mutant expressed as full length IgG4 antibody (antibody, V domains shown)
VH: QVQLVQSGAELKKPGSSVKISCKSSGYAFSSQWMNWVKQRPGQGLEWIGQIYPEDGDTHYNGKFKGKATLTADKSTSTAYMELSSLTSEDSAVYFCSSSNWVGSYWGQGTLVTVSS
VL: DVVMTQSPLSLPVTLGQPASISCKSSQSLLEEDGNTYLNWLQQRPGQSPRRLIYLVDRLDLGVPDRFSGSGSGTDFTLKISRVEAEDVGVYYCWQGSHLPQTFGGGTKVEIK
notes: Full length IgG4
B2: H83P mutant expressed as full length IgG4 antibody (antibody, V domains shown)
VH: B1 VH with E54G, T58I, G62D
VL: B1 VL with E32S, L61S, S97T, H98D
notes: Full length IgG4
B3: D124P scFv displayed on yeast (scFv, V domains shown)
VH: B1 VH
VL: B1 VL with E32S, L61S, S97T, H98D
notes: Aga2-anchored, VH-VL orientation; not shown: linker; SV5 tag
B4: G24P scFv displayed on yeast (scFv, V domains shown)
VH: B1 VH with Q32N, G62D
VL: B1 VL with E32S, L61S, S97T, H98D
notes: as for B3
B5: D74P scFv displayed on yeast (scFv, V domains shown)
VH: B1 VH with E54G, G56N, G62D
VL: B1 VL with E32A, L61S, S97T, H98D
notes: as for B3
B6: D24P scFv displayed on yeast (scFv, V domains shown)
VH: B1 VH
VL: B1 VL with E32S, D57S, L61I, S97T, H98D
notes: as for B3
B7: G14P scFv displayed on yeast (scFv, V domains shown)
VH: B1 VH with E54G, G62D
VL: B1 VL with L61D, S97T, H98D
notes: as for B3
B8: F64P scFv displayed on yeast (scFv, V domains shown)
VH: B1 VH with Q32Y, W33Y, E54G, Y60M
VL: B1 VL with E32S, L61S, S97T, H98D
notes: as for B3
B9: D113P scFv displayed on yeast (scFv, V domains shown)
VH: B1 VH with E54G, Y60M
VL: B1 VL with E32G, L61I, S97T, H98D
notes: as for B3
B10: B34P scFv displayed on yeast (scFv, V domains shown)
VH: B1 VH with Q32N, G62D
VL: B1 VL with E32S, D57S, L59R, L61S, S97T, H98D
notes: as for B3
B11: B53P scFv displayed on yeast (scFv, V domains shown)
VH: B1 VH with T58I
VL: B1 VL with E32S, L61S, S97T, H98D
notes: as for B3
B12: B23P scFv displayed on yeast (scFv, V domains shown)
VH: B1 VH with Q32Y, W33Y, E54G, Y60M
VL: B1 VL with E32S, D57S, L59R, L61S, S97T, H98D
notes: as for B3
B13: A44P scFv displayed on yeast (scFv, V domains shown)
VH: B1 VH with G62D
VL: B1 VL with E32S, D57N, L61S, S97T, H98D
notes: as for B3
B14: E94P scFv displayed on yeast (scFv, V domains shown)
VH: B1 VH with E54G, Y60M
VL: B1 VL with L61S, S97T, H98D
notes: as for B3

Residue numbers refer to the chain shown, from its start. Numbers in names are those of the source.

The first test deals with human SCF248 (stem cell factor 248 isoform) expressed on mouse SI/SI4 cells (human), P21583. Nature of the test: cell-based or functional assay.
Sequence of human SCF248 (stem cell factor 248 isoform) expressed on mouse SI/SI4 cells (human), P21583 (P21583 26-273): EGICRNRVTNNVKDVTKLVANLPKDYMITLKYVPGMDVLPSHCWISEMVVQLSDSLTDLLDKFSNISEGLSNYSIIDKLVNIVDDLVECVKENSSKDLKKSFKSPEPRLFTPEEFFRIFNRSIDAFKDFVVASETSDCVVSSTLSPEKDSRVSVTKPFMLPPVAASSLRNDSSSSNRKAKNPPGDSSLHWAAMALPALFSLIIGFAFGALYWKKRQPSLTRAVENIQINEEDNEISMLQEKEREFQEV
For B1, the CCL2 Expression as Percentage of Positive Control worked out at 40.6% and the TGFβ Expression as Percentage of Positive Control stood at 58.4%.
For B2 the same measures were 56.2% and 77.1%.

The target in a further test is T1, exon 6 peptide (ASSLRNDSSSSNRKAKNPPGDS), coated on ELISA plate (not fully specified).
T1 construct: No biotin is mentioned for the ELISA coat; also called a peptide of SCF248
T1 peptide: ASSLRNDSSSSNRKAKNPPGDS
Nature of the test: direct ELISA on coated peptide, IgG4, read at 450 nm. As for the experimental part: A direct enzyme-linked immunosorbent assay (ELISA) was performed to evaluate binding of the clones of Example 2 (referred to in all additional examples as “mutants”) to the Exon 6 peptide. The mutants were expressed as full length IgG4 antibodies.
The plate was incubated at 4° C. overnight. […] Both plates were washed with wash buffer twice. Then, the plates were blocked with blocking buffer for 1 hour at 37° C. The plates were then washed with wash buffer twice. […] The plate was covered and incubated for 1 hour at 37° C. The plates were then washed with wash buffer three times. The secondary antibody was added to the plates. The plates were covered and incubated for 1 hour at 37° C. The plates were then washed with wash buffer three times. 100 μL of detection substrate was added to each well of the plates. The plates were covered and incubated for 10-20 minutes at room temperature. Subsequently, 100 μL of stop solution was added to the plates. Each plate was read at an absorbance of 450 nm.
Reagents: Coating buffer contained 1.5M NaCl, 0.5M […], and 1.0N NaOH. Wash buffer contained 0.05% Tween-20 in PBS. Blocking buffer contained 2.0% normal goat serum in wash buffer. The dilution buffer was wash buffer and 2% FCS. The secondary antibody was a goat anti-human IgG HRP conjugate, purchased from Millipore (Catalogue Number: AP309P). The secondary antibody was diluted 1:1000. The detection substrate was prepared by dissolving 4 O-phenylenediamine dihydrochloride (OPD) tablets dissolved in 12 mL sterile distilled water. 5 μL of hydrogen peroxide (30% v/v) was added to the detection substrate immediately before adding substrate to the wells. The stop solution contained 0.5 M H₂SO₄.
(In general: In an ELISA, binding on a coated surface is turned into a signal by an enzyme label.)
Turning to B1, the “absorbance at 0.1 ng/mL antibody” value came to 0.105 absorbance, the “absorbance at 0.5 ng/mL antibody” value was determined as 0.249 absorbance, the “absorbance at 1 ng/mL antibody” value worked out at 0.58 absorbance and the “absorbance at 5 ng/mL antibody” value was 1.3 absorbance. The “absorbance at 100 ng/mL antibody” value was determined as 2.56 absorbance and the “absorbance at 1000 ng/mL antibody” value came to 3 absorbance.
Turning to B2, the “absorbance at 0.1 ng/mL antibody” value is 0.204 absorbance, the “absorbance at 0.5 ng/mL antibody” value came out at 0.537 absorbance, the “absorbance at 1 ng/mL antibody” value is 0.597 absorbance and the “absorbance at 5 ng/mL antibody” value stood at 1.42 absorbance. Further, the “absorbance at 100 ng/mL antibody” value was 1.81 absorbance and the “absorbance at 1000 ng/mL antibody” value is 2.32 absorbance.

The next test concerns the target T2, PE9413, C-terminal biotinylated peptide mapping on Exon6 of the SCF molecule (SCF248) (C-terminal biotin).
T2 construct: also called C-terminal biotinylated PE9413; C-ter PE9413
T2 peptide: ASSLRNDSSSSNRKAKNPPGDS
Nature of the test: yeast-displayed scFv, flow cytometry titration of biotinylated peptide. How it is done:
The binding of the selected 48 clones described above to 170 nM of C-terminal biotinylated PE9413 was evaluated. The 24 clones with the highest binding signal were further evaluated for binding affinity. Each clone was incubated with increasing amounts of biotinylated PE9413, and stained with a fluorescently labeled anti-streptavidin antibody. Binding of the clone to PE9413 was analyzed by flow cytometry. A plot of concentration of PE9413 versus the median fluorescent signal of the yeast cell population that bound to PE9413 was used to estimate the binding affinity (KD) of each clone to C-terminal biotinylated PE9413.
For orientation: A flow cytometer gives signals particle by particle.
With B3, the Kd (in general, a measure of binding affinity in units of concentration) is 6.97 nM.
The same measure, in the same setting: with B4 the figure was 5.79 nM; with B5, 6.38 nM.
With B6, the affinity, expressed as Kd, was 14.4 nM.
Still for that read-out and setting: for B7 the value was 5.93 nM; for B8, 6.69 nM; for B9, 8.07 nM.
Still for that read-out and setting: for B10 the value was 5.06 nM; for B11, 4.97 nM; for B12, 5.3 nM.
Same read-out and setting: with B13 the figure was 5.32 nM; with B14, 6.33 nM.
